The results in this text go back to PMC4976356, “Structural insight into β-Clamp and its interaction with DNA Ligase in Helicobacter pylori” (Scientific Reports, 2016).

Series [1] deals with the molecule itself. Put plainly: SEC; gel filtration on HiLoad G200 16/60; 30 mM Tris pH 7.5, 150 mM NaCl, 5% glycerol, 30 mM arginine, 6 mM βMe. (In general: In gel filtration, larger molecules generally elute earlier.)
The target in series [2] is T1, NAD-dependent DNA ligase from Helicobacter pylori 26695 (Helicobacter pylori 26695, UniProt O25336 1-656).
T1 construct: Cloned and expressed in a similar manner to the β-clamp (NcoI/XhoI, pET 28(b)); by the printed forward primer Met-Gly would stand before Met1, and the reverse primer has no stop codon, so a C-terminal vector His tag is likely (surmised); also called HpDNA ligase; Hpligase; source: E. coli BL21, purified (Ni Sepharose, HiLoad G200 gel filtration)
As to conditions: both partners purified.

B1: β-clamp from Helicobacter pylori 26695 (natural protein, UniProt O25242 1-374, looked up)
chain: MKISVSKNDLENALRYLQAFLDKKDASSIASHIHLEVIKEKLFLKASDSDIGLKSYIFTQSSDKEGVGTINGKKFLDIISCLKDSNIILETKDDSLAIKQNKSSFKLPMFDADEFPEFPVIDPKVSIEVNAPFLVDAFKKIAPVIEQTSHKRELAGILMQFDQKHQTLSVVGTDTKRLSYTQLEKISIHSTEEDISCILPKRALLEILKLFYENFSFKSDGMLAVIENEMHTFFTKLIDGNYPDYQKILPKEYISSFTLGKEEFKESIKLCSSLSSTIKLTLEKNNALFESLDSEHSETAKTSVEIEKGLDIEKAFHLGVNAKFFLEALNALGTTQFVLRCNEPSSPFLIQESLDEKQSHLNAKISTLMMPITL
notes: DNA polymerase III beta subunit (β-clamp) of Helicobacter pylori 26695; domains I-III span Met1 to Leu374; Cloned between NcoI and XhoI of pET 28(b); the reverse primer has no stop codon, so a C-terminal vector His tag is likely (surmised); By the printed forward primer the ATG of the NcoI site is out of frame with the gene's own ATG; also called Hpβ-clamp; H. pylori β-clamp; source: E. coli …
For the molecule B1, the “stoichiometry N” value in series [1] was 2. The molecule also returned a Kd in series [2] of 1250 nM.

In general, stoichiometry N refers to a count of units in the complex or per binding partner. The term Kd denotes a measure of binding affinity in units of concentration.
